Assay results taken from patent US20070077239A1 (BOARD OF TRUSTEES OF THE UNIVERSITY OF ILLINOIS, published 2007).
Ends that are not written are not given here.

B1: EARKIV peptide (peptide)
peptide: EARKIV-NH2
notes: Synthetic hexapeptide from MPO-HC; also called EARKIV motif
B2: MPO-WT-peptide (MPO-HC sequence 425-454) (peptide)
peptide: not shown
modifications: C-terminal amide
notes: Immobilised on nitrocellulose in the dot-blot; also called ADS
B3: MPO-HC (60 kDa protein isolated from human lung tissue) (enzyme, UniProt P05164 279-745, looked up)
chain: VNCETSCVQQPPCFPLKIPPNDPRIKNQADCIPFFRSCPACPGSNITIRNQINALTSFVDASMVYGSEEPLARNLRNMSNQLGLLAVNQRFQDNGRALLPFDNLHDDPCLLTNRSARIPCFLAGDTRSSEMPELTSMHTLLLREHNRLATELKSLNPRWDGERLYQEARKIVGAMVQIITYRDYLPLVLGPTAMRKYLPTYRSYNDSVDPRIANVFTNAFRYGHTLIQPFMFRLDNRYQPMEPNPRVPLSRVFFASWRVVLEGGIDPILRGLMATPAKLNRQNQIAVDEIRERLFEQVMRIGLDLPALNMQRSRDHGLPGYNAWRRFCGLPQPETVGQLGTVLRNLKLARKLMEQYGTPNNIDIWMGGVSEPLKRKGRVGPLLACIIGTQFRKLRDGDRFWWENEGVFSMQQRQALAQISLPRIICDNTGITTVSKNNIFMSNSYPRDFVNCSTLPALNLASWREAS
notes: domain: heavy chain (HC); also called MPO heavy chain

Experiments:
human serum albumin [1] = target: T1, human serum albumin (human, UniProt P02768 25-609); experiment: 125I-HSA dot-blot on peptide immobilised on nitrocellulose
T1 construct: also called HSA
Description: (§1) Peptides were immobilized on nitrocellulose membranes and non-specific binding was blocked with bovine γ-globulin (2 mg/ml in PBS) for 1 h at 22° C. Membranes were washed 2× with PBS and incubated with ¹²⁵I-labeled HSA ([…]) for 2 h at 22° C. Membranes were then washed 4× with PBS containing 0.05% Tween-20 (PBST) and autoradiography was performed. In some experiments, the membranes were directly counted to determine the membrane-associated radioactivity.
(§2) Peptides were immobilized on nitrocellulose membranes and then incubated with 1 ml of 0.3 μM ¹²⁵I-HSA in PBS for 2 h. Other details were described in Example 1. Non-specific binding was determined by incubating membranes with ¹²⁵I-HSA in the absence of any peptides. Results are shown mean±S.E. for three separate experiments made in triplicate.

human serum albumin [2] = target: T1, human serum albumin; experiment: dot-blot, 1.0 nmoles peptide per filter on nitrocellulose, 0.3 µM 125I-HSA, 2 h
Description: as §1, §2

human serum albumin [3] = target: T1, human serum albumin; experiment: dot-blot, 2.5 nmoles peptide per filter on nitrocellulose, 0.3 µM 125I-HSA, 2 h
Description: as §1, §2

human serum albumin [4] = target: T1, human serum albumin; experiment: dot-blot, 5.0 nmoles peptide per filter on nitrocellulose, 0.3 µM 125I-HSA, 2 h
Description: as §1, §2

human serum albumin [5] = target: T1, human serum albumin; experiment: dot-blot, 10.0 nmoles peptide per filter on nitrocellulose, 0.3 µM 125I-HSA, 2 h
Description: as §1, §2

rat serum albumin = target: T2, rat serum albumin (rat, UniProt P02770 25-608); experiment: binding of albumin to the immobilised peptide; details not given
T2 construct: also called RSA
T2 sequence (P02770 25-608 limits assumed): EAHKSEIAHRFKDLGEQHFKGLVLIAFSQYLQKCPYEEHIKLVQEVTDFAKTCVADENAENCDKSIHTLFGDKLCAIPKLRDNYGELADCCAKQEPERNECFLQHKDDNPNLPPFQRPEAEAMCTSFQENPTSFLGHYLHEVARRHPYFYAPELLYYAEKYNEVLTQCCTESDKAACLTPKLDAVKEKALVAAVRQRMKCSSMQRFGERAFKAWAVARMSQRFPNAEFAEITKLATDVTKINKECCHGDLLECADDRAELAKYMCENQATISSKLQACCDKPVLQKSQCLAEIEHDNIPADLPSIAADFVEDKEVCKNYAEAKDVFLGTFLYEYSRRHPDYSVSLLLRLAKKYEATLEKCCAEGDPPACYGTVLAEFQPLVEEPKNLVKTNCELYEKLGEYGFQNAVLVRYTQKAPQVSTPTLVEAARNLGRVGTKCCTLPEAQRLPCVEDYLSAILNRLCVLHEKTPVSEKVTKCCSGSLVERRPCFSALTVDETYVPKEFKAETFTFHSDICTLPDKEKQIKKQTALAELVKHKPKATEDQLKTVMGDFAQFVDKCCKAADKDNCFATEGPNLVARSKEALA

human serum albumin [6] = target: T1, human serum albumin; experiment: HSA-Sepharose affinity chromatography of human lung extract, elution at pH 4.0, SDS-PAGE, MALDI-MS
Description: Protein purification and MALDI-MS: Human lung tissue (180 g) was washed, minced, and homogenized with 20 volumes of buffer A (20 mM Hepes/Tris/0.15 M NaCl/0.1 mM phenylmethylsufonylfluoride [PMSF]/30 pM benzamidine [BM], pH 7.4). The homogenate was centrifuged at 1000×g for 10 min and the supernatant was centrifuged at 100,000×g for 60 min. The pellet obtained was solubilized using 2.5% sodium cholate and 4 M urea (Tiruppathi et al., Proc. Natl. Acad Sci. USA, 93:250-254 (1996)). The solubilized extract was concentrated by ethanol precipitation and re-extracted with Triton X- 100 (Tiruppathi et al., Proc. Natl. Acad Sci. USA, 93:250-254 (1996)). The Triton X-100 concentration in the extract was adjusted to 0.2% and applied on HSAsepharose column (1×10 cm) pre-equilibrated with buffer-B (10 MM Tris-HCl, 0.5 MM EDTA, pH 7.4 containing 0.1 mM PMSF, 30 [M BM, and 0.2% Triton X-100). The column was washed and bound proteins were eluted with 20 ml of 0.1 M citrate buffer pH 4.0 containing 0.2% Triton X- 100. The proteins eluted were separated on SDS-PAGE, stained with Coomassie Brilliant Blue R-250 (CBBR-250) (FIG. 1A). The protein bands excised were digested with trypsin and peptides were analyzed using MALDI-MS at Yale University Biotechnology Resource Laboratory (New Haven, Conn.). The peptide masses were compared with known sequence using Profound search analysis on OWL database. […]

Binder | binding result (human serum albumin [1]) | 125I-HSA bound (pmoles/filter) (human serum albumin [2]) | 125I-HSA bound (pmoles/filter) (human serum albumin [3]) | 125I-HSA bound (pmoles/filter) (human serum albumin [4]) | 125I-HSA bound (pmoles/filter) (human serum albumin [5]) | binding result (rat serum albumin) | binding result (human serum albumin [6])
B1 | no binding | 0.05 pmoles/filter | 0.06 pmoles/filter | 0.08 pmoles/filter | 0.11 pmoles/filter | – | –
B2 | – | 0.31 pmoles/filter | 1.45 pmoles/filter | 2.93 pmoles/filter | 6.55 pmoles/filter | binds | –
B3 | – | – | – | – | – | – | binds
GLATELGSLNPGWDGEGLYQEAGGIVGAMV-NH2 [MPO-MT-peptide] | no binding | 0.01 pmoles/filter | 0.11 pmoles/filter | 0.14 pmoles/filter | 0.19 pmoles/filter | – | –
